How the values were obtained:
Experiment in all cases: native gel or EMSA
[1] = biological target: B41 SOSIP.v4.1-His trimer (HIV-1 (B41))
[2] = biological target: BG505 SOSIP.664 trimer (HIV-1 (BG505)) (UniProt Q2N0S6)
[3] = biological target: BG505 SOSIP.664-His trimer (HIV-1 (BG505)) (UniProt Q2N0S6)

Q: B41 SOSIP.v4.1-His trimer (complex) was tested. Which stoichiometry N [1] did it give?
A: 3

Q: Which stoichiometry N [2] does the source give for “BG505 SOSIP.664 trimer (from UniProt Q2N0S6 1-860; Q2N0S6 1-860) (complex)” here?
A: 3

Q: With “BG505 SOSIP.664-His trimer (from UniProt Q2N0S6 1-860; Q2N0S6 1-860) (complex)” as the substance, how does the stoichiometry N [3] read?
A: 3

Source: PMC6453562
